Positions count from the first letter of the chain named.
B1: ibalizumab L chain mutant LM52 (antibody, V domains shown)
VH: QVQLQQSGPEVVKPGASVKMSCKASGYTFTSYVIHWVRQKPGQGLDWIGYINPYNDGTDYDEKFKGKATLTSDTSTSTAYMELSSLRSEDTAVYYCAREKDNYATGAWFAYWGQGTLVTVSS
VL: DIVMTQSPDSLAVSLGERVTMNCKSSQSLLYSTNQKNYLAWYQQKPGQSPKLLIYWANSTESGVPDRFSGSGSGTDFTLTISSVQAEDVAVYYCQQYYSYRTFGGGTKLEIK
B2: ibalizumab (wild type) (antibody, V domains shown)
VH: B1 VH
VL: B1 VL with N58S, S59T, T60R

Molecular target: insulin (Homo sapiens (species ), UniProt P01308)
Test: ELISA

insulin, sequence (P01308 whole entry, looked up): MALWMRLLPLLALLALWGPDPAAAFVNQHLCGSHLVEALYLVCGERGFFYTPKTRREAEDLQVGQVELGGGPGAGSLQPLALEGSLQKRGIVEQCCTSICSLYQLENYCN

Row | binding result | Binder
1 | no binding | B1
2 | no binding | B2
